Measurements: PMC6620310, “A ubiquitin-like domain is required for stabilizing the N-terminal ATPase module of human SMCHD1” (Communications Biology, 2019)

B1: SMCHD1(24–580) wild-type [human] / itself (parent complex)
chain: GHRTVYLFDRREKESELGDRPLQVGERSDYAGFRACVCQTLGISPEEKFVITTTSRKEITCDNFDETVKDGVTLYLLQSVNQLLLTATKERIDFLPHYDTLVKSGMYEYYASEGQNPLPFALAELIDNSLSATSRNIGVRRIQIKLLFDETQGKPAVAVIDNGRGMTSKQLNNWAVYRLSKFTRQGDFESDHSGYVRPVPVPRSLNSDISYFGVGGKQAVFFVGQSARMISKPADSQDVHELVLSKEDFEKKEKNKEAIYSGYIRNRKPSDSVHITNDDERFLHHLIIEEKEKDSFTAVVITGVQPEHIQYLKNYFHLWTRQLAHIYHYYIHGPKGNEIRTSKEVEPFNNIDIEISMFEKGKVPKIVNLREIQDDMQTLYVNTAADSFEFKAHVEGDGVVEGIIRYHPFLYDRETYPDDPCFPSKLKDEDDEDDCFILEKAARGKRPIFECFWNGRLIPYTSVEDFDWCTPPKKRGLAPIECYNRISGALFTNDKFQVSTNKLTFMDLELKLKDKNTLFTRILNGQEQRMKIDREFALWLKDCHEKYDKQIKFTLFK

Variants of: B1
Assay: native PAGE; parent: 0.098; read off a plot

Q: How did the screen value turn out when chain 1 L171F was run?
A: The screen value was ~0.008.

Q: Which screen value does the source give for chain 1 Q322R here?
A: Its screen value is ~0.11.

Q: For chain 1 T500K, which screen value is on record?
A: Its screen value is ~0.11.

Q: For chain 1 E450Q, which screen value is on record?
A: Its screen value is ~0.12.

Q: With chain 1 E450G as the variant, how does the screen value read?
A: Its screen value is ~0.2.

Q: For chain 1 S112C, which screen value is on record?
A: Its screen value is ~0.096.

Q: chain 1 G114E was tested. Which screen value did it give?
A: Its screen value is ~0.15.

Q: Which screen value does the source give for chain 1 N116H here?
A: Its screen value is ~0.093.

Q: Which screen value does the source give for chain 1 G455E here?
A: The screen value was ~0.01.

Q: chain 1 Y260C was tested. Which screen value did it give?
A: Its screen value is ~0.012.

Q: How did the screen value turn out when chain 1 H325R was run?
A: The screen value was ~0.12.
